Numbered stars: 1 amine (or outer) side, 2 acyl side, 3 side chain; on linkers, the order of the positions; unused ones are H or OH. Bridge positions count the residues as written; N and C are the ends. Square brackets hold non-standard residues; d marks the D form. Primed or numbered codes have the meaning given here. Ends that are not written are not given here. TTDS(3) = 1,13-Diamino-4,7,10-trioxatridecan-succinamic acid; Pro(3S,4R-methano) = O=C(O)[C@H]1NC[C@@H]2C[C@@H]21; cPrCO(1-aminomethyl) = O=C(C1(CN[*:1])CC1)[*:2]; Oic = O=C(O)[C@@H]1C[C@@H]2CCCC[C@@H]2N1; PEG6 = NCCOCCOCCOCCOCCOCCOCCC(=O)O; NMeI = CC[C@H](C)[C@H](NC)C(=O)O; tBuAla = CC(C)(C)C[C@H](N)C(=O)O; Pen = CC(C)(S)[C@H](N)C(=O)O; NMeC = CN[C@@H](CS)C(=O)O; PEG3 = NCCOCCOCCOCCC(=O)O; Nle = CCCC[C@H](N)C(=O)O; Orn = NCCC[C@H](N)C(=O)O; Nva = CCC[C@H](N)C(=O)O; Sar = CNCC(=O)O

First the molecules themselves.
T1: recombinant human MASP1 active protease (amino acids 297-699, C-terminal His Tag) (human, UniProt P48740 297-699)
T1 sequence: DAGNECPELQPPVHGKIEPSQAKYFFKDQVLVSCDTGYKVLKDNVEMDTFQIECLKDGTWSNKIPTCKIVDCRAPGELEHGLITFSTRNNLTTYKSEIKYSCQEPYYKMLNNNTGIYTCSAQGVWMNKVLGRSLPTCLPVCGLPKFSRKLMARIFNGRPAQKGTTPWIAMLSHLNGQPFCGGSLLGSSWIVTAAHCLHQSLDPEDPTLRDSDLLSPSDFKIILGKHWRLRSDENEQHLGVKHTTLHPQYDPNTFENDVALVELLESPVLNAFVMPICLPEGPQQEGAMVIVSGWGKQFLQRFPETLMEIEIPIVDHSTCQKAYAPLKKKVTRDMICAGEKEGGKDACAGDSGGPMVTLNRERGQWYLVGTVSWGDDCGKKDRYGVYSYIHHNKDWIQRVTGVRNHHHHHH

B1: (Orn)-IC+SRS-((tBu)A)-PPI-((N-Me)C)+I-NH2 (peptide)
peptide: [Orn]ICSRS[tBuAla]PPI[NMeC]I-NH2
modifications: disulfide 3-11; N-terminus assumed
SMILES: CC[C@H](C)[C@H](NC(=O)[C@@H]1CSSC[C@H](NC(=O)[C@@H](NC(=O)[C@@H](N)CCCN)[C@@H](C)CC)C(=O)N[C@@H](CO)C(=O)N[C@@H](CCCNC(=N)N)C(=O)N[C@@H](CO)C(=O)N[C@@H](CC(C)(C)C)C(=O)N2CCC[C@H]2C(=O)N2CCC[C@H]2C(=O)N[C@@H]([C@@H](C)CC)C(=O)N1C)C(N)=O
B2: AIC+SRS-((tBu)A)-PPI-(Pen)+IPD-NH2 (peptide)
peptide: AICSRS[tBuAla]PPI[Pen]IPD-NH2
modifications: disulfide 3-11; N-terminus assumed
SMILES: CC[C@H](C)[C@H](NC(=O)[C@H](C)N)C(=O)N[C@H]1CSSC(C)(C)[C@@H](C(=O)N[C@H](C(=O)N2CCC[C@H]2C(=O)N[C@@H](CC(=O)O)C(N)=O)[C@@H](C)CC)NC(=O)[C@H]([C@@H](C)CC)NC(=O)[C@@H]2CCCN2C(=O)[C@@H]2CCCN2C(=O)[C@H](CC(C)(C)C)NC(=O)[C@H](CO)NC(=O)[C@H](CCCNC(=N)N)NC(=O)[C@H](CO)NC1=O
B3: aIC+SRSLP-(Oic)-I-(Pen)+I-OH (peptide)
peptide: [dA]ICSRSLP[Oic]I[Pen]I-OH
modifications: disulfide 3-11; N-terminus assumed
SMILES: CC[C@H](C)[C@H](NC(=O)[C@H]1NC(=O)[C@H]([C@@H](C)CC)NC(=O)[C@@H]2C[C@@H]3CCCC[C@@H]3N2C(=O)[C@@H]2CCCN2C(=O)[C@H](CC(C)C)NC(=O)[C@H](CO)NC(=O)[C@H](CCCNC(=N)N)NC(=O)[C@H](CO)NC(=O)[C@@H](NC(=O)[C@@H](NC(=O)[C@@H](C)N)[C@@H](C)CC)CSSC1(C)C)C(=O)O
B4: ((N-Me)G)-IC+SRSLP-(Oic)-I-(Pen)+IP-(PEG2(13 atoms))-NH2 (peptide)
peptide: [Sar]ICSRSLP[Oic]I[Pen]IP[PEG3]-NH2
modifications: disulfide 3-11; N-terminus assumed
SMILES: CC[C@H](C)[C@H](NC(=O)CNC)C(=O)N[C@H]1CSSC(C)(C)[C@@H](C(=O)N[C@H](C(=O)N2CCC[C@H]2C(=O)NCCOCCOCCOCCC(N)=O)[C@@H](C)CC)NC(=O)[C@H]([C@@H](C)CC)NC(=O)[C@@H]2C[C@@H]3CCCC[C@@H]3N2C(=O)[C@@H]2CCCN2C(=O)[C@H](CC(C)C)NC(=O)[C@H](CO)NC(=O)[C@H](CCCNC(=N)N)NC(=O)[C@H](CO)NC1=O
B5: (ACMP)-IC+SRS-((tBu)A)-PPI-((N-Me)C)+I-NH2 (peptide)
peptide: [cPrCO(1-aminomethyl)]ICSRS[tBuAla]PPI[NMeC]I-NH2
modifications: disulfide 3-11; N-terminus assumed
SMILES: CC[C@H](C)[C@H](NC(=O)[C@@H]1CSSC[C@H](NC(=O)[C@@H](NC(=O)C2(CN)CC2)[C@@H](C)CC)C(=O)N[C@@H](CO)C(=O)N[C@@H](CCCNC(=N)N)C(=O)N[C@@H](CO)C(=O)N[C@@H](CC(C)(C)C)C(=O)N2CCC[C@H]2C(=O)N2CCC[C@H]2C(=O)N[C@@H]([C@@H](C)CC)C(=O)N1C)C(N)=O
B6: ((N-Me)G)-((N-Me)I)-C+SRS-((tBu)A)-PPI-(Pen)+I-NH2 (peptide)
peptide: [Sar][NMeI]CSRS[tBuAla]PPI[Pen]I-NH2
modifications: disulfide 3-11; N-terminus assumed
SMILES: CC[C@H](C)[C@H](NC(=O)[C@H]1NC(=O)[C@H]([C@@H](C)CC)NC(=O)[C@@H]2CCCN2C(=O)[C@@H]2CCCN2C(=O)[C@H](CC(C)(C)C)NC(=O)[C@H](CO)NC(=O)[C@H](CCCNC(=N)N)NC(=O)[C@H](CO)NC(=O)[C@@H](NC(=O)[C@H]([C@@H](C)CC)N(C)C(=O)CNC)CSSC1(C)C)C(N)=O
B7: (Nle)-IC+SRS-((tBu)A)-PPI-(Pen)+IPD-NH2 (peptide)
peptide: [Nle]ICSRS[tBuAla]PPI[Pen]IPD-NH2
modifications: disulfide 3-11; N-terminus assumed
SMILES: CCCC[C@H](N)C(=O)N[C@H](C(=O)N[C@H]1CSSC(C)(C)[C@@H](C(=O)N[C@H](C(=O)N2CCC[C@H]2C(=O)N[C@@H](CC(=O)O)C(N)=O)[C@@H](C)CC)NC(=O)[C@H]([C@@H](C)CC)NC(=O)[C@@H]2CCCN2C(=O)[C@@H]2CCCN2C(=O)[C@H](CC(C)(C)C)NC(=O)[C@H](CO)NC(=O)[C@H](CCCNC(=N)N)NC(=O)[C@H](CO)NC1=O)[C@@H](C)CC
B8: (Nva)-IC+SRS-((tBu)A)-PPI-(((N-Me)C))+I-NH2 (peptide)
peptide: [Nva]ICSRS[tBuAla]PPI[NMeC]I-NH2
modifications: disulfide 3-11; N-terminus assumed
SMILES: CCC[C@H](N)C(=O)N[C@H](C(=O)N[C@H]1CSSC[C@@H](C(=O)N[C@H](C(N)=O)[C@@H](C)CC)N(C)C(=O)[C@H]([C@@H](C)CC)NC(=O)[C@@H]2CCCN2C(=O)[C@@H]2CCCN2C(=O)[C@H](CC(C)(C)C)NC(=O)[C@H](CO)NC(=O)[C@H](CCCNC(=N)N)NC(=O)[C@H](CO)NC1=O)[C@@H](C)CC
B9: ((N-Me)G)-IC+SRSL-((1S,2S,5R)-3-azabicyclo[3.1.0]hexane-2-carboxylic acid)-PI-(Pen)+IPE-NH2 (peptide)
peptide: [Sar]ICSRSL[Pro(3S,4R-methano)]PI[Pen]IPE-NH2
modifications: disulfide 3-11; N-terminus assumed
SMILES: CC[C@H](C)[C@H](NC(=O)CNC)C(=O)N[C@H]1CSSC(C)(C)[C@@H](C(=O)N[C@H](C(=O)N2CCC[C@H]2C(=O)N[C@@H](CCC(=O)O)C(N)=O)[C@@H](C)CC)NC(=O)[C@H]([C@@H](C)CC)NC(=O)[C@@H]2CCCN2C(=O)[C@@H]2[C@H]3C[C@H]3CN2C(=O)[C@H](CC(C)C)NC(=O)[C@H](CO)NC(=O)[C@H](CCCNC(=N)N)NC(=O)[C@H](CO)NC1=O
B10: SIC+SRS-((tBu)A)-PPI-((N-Me)C)+I-NH2 (peptide)
peptide: SICSRS[tBuAla]PPI[NMeC]I-NH2
modifications: disulfide 3-11; N-terminus assumed
SMILES: CC[C@H](C)[C@H](NC(=O)[C@@H]1CSSC[C@H](NC(=O)[C@@H](NC(=O)[C@@H](N)CO)[C@@H](C)CC)C(=O)N[C@@H](CO)C(=O)N[C@@H](CCCNC(=N)N)C(=O)N[C@@H](CO)C(=O)N[C@@H](CC(C)(C)C)C(=O)N2CCC[C@H]2C(=O)N2CCC[C@H]2C(=O)N[C@@H]([C@@H](C)CC)C(=O)N1C)C(N)=O
B11: ((N-Me)G)-IC+SRS-((tBu)A)-PPI-(Pen)+IP-(PEG5(22 atoms))-NH2 (peptide)
peptide: [Sar]ICSRS[tBuAla]PPI[Pen]IP[PEG6]-NH2
modifications: disulfide 3-11; N-terminus assumed
SMILES: CC[C@H](C)[C@H](NC(=O)CNC)C(=O)N[C@H]1CSSC(C)(C)[C@@H](C(=O)N[C@H](C(=O)N2CCC[C@H]2C(=O)NCCOCCOCCOCCOCCOCCOCCC(N)=O)[C@@H](C)CC)NC(=O)[C@H]([C@@H](C)CC)NC(=O)[C@@H]2CCCN2C(=O)[C@@H]2CCCN2C(=O)[C@H](CC(C)(C)C)NC(=O)[C@H](CO)NC(=O)[C@H](CCCNC(=N)N)NC(=O)[C@H](CO)NC1=O
B12: AIC+SRS-((tBu)A)-PPI-((N-Me)C)+IPD-OH (peptide)
peptide: AICSRS[tBuAla]PPI[NMeC]IPD-OH
modifications: disulfide 3-11; N-terminus assumed
SMILES: CC[C@H](C)[C@H](NC(=O)[C@H](C)N)C(=O)N[C@H]1CSSC[C@@H](C(=O)N[C@H](C(=O)N2CCC[C@H]2C(=O)N[C@@H](CC(=O)O)C(=O)O)[C@@H](C)CC)N(C)C(=O)[C@H]([C@@H](C)CC)NC(=O)[C@@H]2CCCN2C(=O)[C@@H]2CCCN2C(=O)[C@H](CC(C)(C)C)NC(=O)[C@H](CO)NC(=O)[C@H](CCCNC(=N)N)NC(=O)[C@H](CO)NC1=O

One assay deals with recombinant human MASP2 active protease (amino acids 297-686, C-terminal His Tag) (human, UniProt O00187 297-686). Put plainly: cell-based or functional assay.
Chain of recombinant human MASP2 active protease (amino acids 297-686, C-terminal His Tag) (O00187 other isoform, or with tags, fused parts or gaps limits assumed): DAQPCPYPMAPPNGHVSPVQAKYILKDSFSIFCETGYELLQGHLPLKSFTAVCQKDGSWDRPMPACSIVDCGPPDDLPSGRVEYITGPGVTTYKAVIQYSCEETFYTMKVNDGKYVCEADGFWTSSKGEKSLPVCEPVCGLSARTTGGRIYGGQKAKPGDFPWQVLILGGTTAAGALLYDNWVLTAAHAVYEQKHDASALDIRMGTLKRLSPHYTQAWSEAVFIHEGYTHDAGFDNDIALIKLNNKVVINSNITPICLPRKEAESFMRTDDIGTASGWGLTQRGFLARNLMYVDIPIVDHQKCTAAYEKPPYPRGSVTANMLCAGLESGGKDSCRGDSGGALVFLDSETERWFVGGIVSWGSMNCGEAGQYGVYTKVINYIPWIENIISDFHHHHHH
B1: the “human MASP2 IC50” value came to 0.13 µM.

In the case of B2, the “human MASP2 IC50” value was 0.083 µM.

As to B3, the “human MASP2 IC50” value came to 0.092 µM.

For the molecule B4, the “human MASP2 IC50” value came to 0.023 µM.

On to AICSRS[tBuAla]P[Oic]ICIPD-NH2 (disulfide 3-11; also: HCl salt) [AIC+SRS-((tBu)A)-P-(Oic)-IC+IPD-NH2 (HCl salt)], for which the “human MASP2 IC50” value was 0.19 µM.

Take B5: the “human MASP2 IC50” value was determined as 0.36 µM.

On to B6, for which the “human MASP2 IC50” value came out at 0.32 µM.

For B7, the “human MASP2 IC50” value turned out to be 0.038 µM.

Take [Sar]ICSRS[tBuAla]PPI[Pen]IP-{TTDS(3)-NH2} (disulfide 3-11) [((N-Me)G)-IC+SRS-((tBu)A)-PPI-(Pen)+IP-(TTDS)-NH2]: the “human MASP2 IC50” value was determined as 0.058 µM.

Turning to B8, the “human MASP2 IC50” value worked out at 0.05 µM.

As to AICSRSLP[rel‑(1R,3R,5R,6R)‑6‑(Trifluoromethyl)‑2‑azabicyclo(3.1.0)hexane‑3‑carboxylic acid]ICIPD-NH2 (disulfide 3-11), the “human MASP2 IC50” value amounted to 2.8 µM.

On to B9, for which the “human MASP2 IC50” value amounted to 0.07 µM.

B10: the “human MASP2 IC50” value was determined as 0.23 µM.

In the case of B11, the “human MASP2 IC50” value was determined as 0.048 µM.

Regarding B12, the “human MASP2 IC50” value was determined as 0.185 µM.

For another assay, the target named is T1, recombinant human MASP1 active protease …. Briefly: cell-based or functional assay.
For B1, the “human MASP1 IC50” value was 0.0026 µM.

For B2, the “human MASP1 IC50” value amounted to 0.0026 µM.

Regarding B3, the “human MASP1 IC50” value stood at 0.0026 µM.

B4: the “human MASP1 IC50” value was determined as 0.0011 µM.

Turning to AICSRS[tBuAla]P[Oic]ICIPD-NH2 (disulfide 3-11; also: HCl salt) [AIC+SRS-((tBu)A)-P-(Oic)-IC+IPD-NH2 (HCl salt)], the “human MASP1 IC50” value was 0.0025 µM.

Regarding B5, the “human MASP1 IC50” value came out at 0.0026 µM.

With B6, the “human MASP1 IC50” value worked out at 0.0027 µM.

In the case of B7, the “human MASP1 IC50” value was determined as 0.0026 µM.

As for [Sar]ICSRS[tBuAla]PPI[Pen]IP-{TTDS(3)-NH2} (disulfide 3-11) [((N-Me)G)-IC+SRS-((tBu)A)-PPI-(Pen)+IP-(TTDS)-NH2], the “human MASP1 IC50” value is 0.0024 µM.

As to B8, the “human MASP1 IC50” value came out at 0.0011 µM.

Turning to AICSRSLP[rel‑(1R,3R,5R,6R)‑6‑(Trifluoromethyl)‑2‑azabicyclo(3.1.0)hexane‑3‑carboxylic acid]ICIPD-NH2 (disulfide 3-11), the “human MASP1 IC50” value was 0.0028 µM.

Regarding B9, the “human MASP1 IC50” value turned out to be 0.0025 µM.

Turning to B10, the “human MASP1 IC50” value turned out to be 0.0028 µM.

As to B11, the “human MASP1 IC50” value was determined as 0.0025 µM.

As for B12, the “human MASP1 IC50” value came out at 0.00245 µM.
